B1: TPR t1 (parent)
chain: GACCAAUCUGCCCUCAGAGCUCGAGAACAUCUUCGGAUGCAGAGGAGGCAGGCUUCGGUGGCGCGAUAGCGCCAACGUCCUCAACCUCCAAUGCAUCCCACCACAUGAUGAUGCCUGAAGAGCCUUGGUUUUUUG

Variants of: B1
Assay: polymerase ribozyme fitness, log enrichment relative to wild type (log ratio); higher = more active; in vitro selection for triplet polymerase activity
In short: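 Fitness measures genotype enrichment against wild-type enrichment on a logarithmic scale, with inverse-variance-weighted averaging of replicates. The logarithm is base 2, and genotypes were kept only with ≥10 input reads and ≥1 read per output in Illumina sequencing. The sequenced libraries came from one triplicate in vitro selection round, including frozen incubation at −7 °C, of PCR-built, transcribed mutant libraries of each subunit of a heterodimeric triplet polymerase ribozyme.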

Row | Variant | polymerase ribozyme fitness (log ratio)
1 | GAUCAAUCUGCCCUCAGAACUCGAGAACAUCUUCGGAUGCAGAGGAGGCAGGGUUCGGUGGCGCGAUAGCGCCAACGUCCUCAACCACCAAUGCAUCCCACCACAUGAUGAUGCCUGAAGAGCAUUGGUUUUUUG | -1.53
2 | GAUCAAUCUACCCUCAGAGCUCGAGAACAUCUUCGGAUGCAGAGUAGGCAGGCUUCGGUGGCGCGAUAGCGCCCACGUCCACAACCUCCAAUGCAUCCCACCACAUGAUGAUGCCUGAAGAGCCUUGGUUUUUUG | -2.98
3 | GAUCAAUCUGCCCUCAGAGCUCGAGAACAUCUUCGGAUGCAGAGGAGGCAGGCUUCUGUGGCGCGAUAGCGCCAACGUCCUCAACCUCCAAUGCAUCCCACCACAUGAUGAUGCCUGAAGAGCCUUGGUUUUUUG | -0.67
4 | GAUCAAUCUGCCCUCAGAGCUCGAGAACAUCUUCGGAUGCAGAGUAGGCAGGCUUCGGUGGCGCGAUAGCGGCAACGUCCUCAACCUCCAAUGCAUCCCACCACAUGAUGAUGCCUGAAGAGCCUUGGUUUUUUG | -2.05
5 | GAUCAAUCUGCCCUCAGAGCUCGAGAACAUCUUCGGAUGCAGAGGAGGCAGGCUUCGGUGGCGCGAUAGCGCCAACGUCCUCAACCUCCAAUCCAUCCCACCACAUGAUGAUGCCUGAAGAGCCUUGGUUUUUUG | -1.09
6 | GAUCAAUCUGCCCUCAGAGCUCGAGAACAUCUUCGGAUGCAGAGGAGCCAGGCUUCGGUGGCGCGAUAGCGCCAAAGUACUCAACCUCCAAUGCAUCCCAGCACAUGAUGAUGCCUGAAGAGCCUUGGUUUUUUG | -4.45
7 | GAUCAAUCUGCCCUCAGAGCUCGAGAACAUCUUCGGAUGCAGAGGAAGCAGGCUUCGGUGGUGCGAUAGCGCCAACGUCCUCAACCUCCAAUGCAUCCCACCACUUGAUGAUGCCUGGAGAGCCUUGGUUUUUUG | -3.83
8 | GAUCAAUCUGCCCUCAGAGCUCGAGAACAUCUUCGGAUGCAGAGGAGGCAGGCUUCGGUGGCGCGAUAGCGCCAACUUCCUCAACCUCCAAUGCAUCCCACCACAUGAUGAUGCCUGAACAGCCUUGGUUUUUUG | 0.534
9 | GAUCAACCUGCCCUCAGCGCUCGAGAACAUCUUCGGAUGCAGAGGAGGCAGACUUCGGUGGCGCGAUAGCGUCAACGUCCUCAACCUCCAAUGAAUCCCACCACAUGAUGAUGCCUGAAGAGCCUUGGUUUUUUG | -4.4
10 | GAUCAAUCUGCCCUCAGAGCUCGAGAACAUCUUCGGAUGCAGAGGAGUCAGGCUUCGGUGCCGCUAUAGCACCAACGUCCUCAACCUCCAAUGCAUCCCACCACAUGAUGAUGCCUGAAGAGCCUUGGUUUUUUG | -4.29
11 | GAUCAAUCUGCCCUCAGAGCUCAAGAACAUCUUCGGAUUCAGAGGAGCCAGGCUUCGGUGGCGCGAUGGCGCCAACGUCCUCAACCUCCAAUGCAUCCUACCACAUGAUGAUGACUGAAGAGCCUUGGUUUUUUG | -5.71
12 | GAUCAAUCUGCCCUCAGAGCUCGAGAACAUCUUCGGAUGCAGAGGAGGCAGGCUUCGGUGGCGCGAUAGCGGCAACGUCCUCAACCUCCUAUGCAUCCCACCACAAGAUGAUGCCUGAAGAGCCUUGGUUUUUUG | -1.94
13 | GAUCAAUCUUCCCUCAGAGCUCGAGUACAUCUUCGGAUGCAGAGGAGGCAGGCUCCGGUGGCGCGAUAUCGCCAACGUCCUCAACCUCCAAUGCAUCCCACCACAUGAUGACGCCUGAAGAGCCUUGGUUUUUUG | -3.58
14 | GAUCAAUCUGCCCUCAGAACUCGAGAACAUCUUCGGAUGCAGAGGAGGCAGGCUUCGGUGGCGCGAUAGUGCCAACGUCCUCAACCUCCAAUGCAUCCCACCACAUGAUGGUGCCUGAAUAGCCUUGGUUUUUUG | -3.71
15 | GAUCAAUCUGCCCUCAGAGCUCGAGAACAUCUUCGGAUGCAGAGCAGGCAGGCUUCGGUGGCGCGAUAGCGCCAACGUCCUCAACCUCCAAUGCAUCCCACCACAUGAUGAUGCCUGAAGAGCCUUGGUUUUUUG | -2.34
16 | GAUCAAUCUGCCCUCAGAGCUCGAGAACAUCUUCGGAUGCAGACGAGGCAGGCUUCGGUAGCGCGAUAGCGCCAACGUCCUCAACCUCCAAUGCAUCCCACCACAUGAUGAUGCCUGAAGAGCCUUGGUUUUUUG | -0.897
17 | GAUCAAUCUGCCCUCAGAGCUCGAGAACAUCUUCGGAUGCAGAGGAGGCAGGCUUCGGUGUCGCGAUAGCGCCAACGUCCUCAAUCUCCAAUGCAUCCCAACACAUGAUGAUGCCUGAAGAGCCUUGGUUUUUUG | -2.34
18 | GAUCAAUCUGCCCUCAGAGCUCGAGAACAUCUUCGGAUGCAGAGGAGGCAGGCUUCGGUGGCGCGAUAGCGCCAACGUCCUCAACCUCCAAUGCAUCCCACCACAUGAUGAUGCCUAAAGAGCCUUGGUUUUUUG | -1.5
19 | GAUCAAUCUGCCCUCAGAGCUCGAGAACAUCUUCGGAUGCAGAGGAGGCAGGCUUCGGUGGCGCGAUAGCGCCAACGUCCUCAACCUCCAAUGCAUCCCACCACAUGAUGAUGCCUUAAGAGCCUUGGUUUUUUG | -2.69
20 | GAUCAAUCUGCCCUCAGAGCUCGAGAACAUCUUCGGAUGCAGAGAAGUCAGGCUUCGGUAGCGCGAUAGCGCCAACGUCCUCAACCUCCAAUGCAUCCCACCACAUGAUGAUGCCUGAAGAGCCUUGGUUUUUUG | -1.92
21 | GAUCAAUCUGCCCUCAGAGCUCGAGAACAUCUUCGGAUGCAGAGGAGGCAGGCUUCGGUGGCGCGAUAGCCCCAACAUCCUCAACCUCCAAUGCAUCCCACCACAUGAUGAUGCCUGAAGAGCCUUGGUUUUUUG | -5.92

From the RNAGym collection of RNA variant scans (doi:10.1073/pnas.2313332121)
